Measured values: patent US20240262922A1 (Merck KGaA, published 2024)
Where two headings read alike, the source gives them in different places.

T1: recombinant human OX40L protein (R&D Systems, cat. #1054-OX) (human, UniProt P23510 51-183)
T1 sequence: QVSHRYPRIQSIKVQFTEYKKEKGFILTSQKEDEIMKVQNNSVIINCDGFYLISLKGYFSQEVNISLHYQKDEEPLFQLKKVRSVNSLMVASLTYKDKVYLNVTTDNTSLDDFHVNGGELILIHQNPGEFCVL

T2: AVI-GST-His6-hOX40L (human, UniProt P23510 51-183)
T2 sequence: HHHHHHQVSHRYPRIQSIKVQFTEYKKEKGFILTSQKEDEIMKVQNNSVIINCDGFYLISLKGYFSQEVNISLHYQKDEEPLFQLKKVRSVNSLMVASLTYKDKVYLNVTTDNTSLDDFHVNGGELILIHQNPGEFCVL

B1: Ref2_Anti_OX40L (antibody, human IgG1, kappa, V domains shown)
VH: EVQLLESGGGLVQPGGSLRLSCAASGFTFNSYAMSWVRQAPGKGLEWVSIISGSGGFTYYADSVKGRFTISRDNSRTTLYLQMNSLRAEDTAVYYCAKDRLVAPGTFDYWGQGALVTVSS
VL: DIQMTQSPSSLSASVGDRVTITCRASQGISSWLAWYQQKPEKAPKSLIYAASSLQSGVPSRFSGSGSGTDFTLTISSLQPEDFATYYCQQYNSYPYTFGQGTKLEIKR
B2: 84E11 (FcFab) (antibody)
heavy: EPKSSDKTHTCPPCPAPPVAGPSVFLFPPKPKDTLMISRTPEVTCVVVDVSHEDPEVKFNWYVDGVEVHNAKTKPREEQYNSTYRVVSVLTVLHQDWLNGKEYKCAVSNKALPSSIEKTISKAKGQPREPQVYTLPPSREEMTKNQVSLTCLVKGFYPSDIAVEWESNGQPENNYKTTPPVLDSDGSFFLYSKLTVDKSRWQQGNVFSCSVMHEALHNHYTQKSLSLSPGAGGGGSGGGGSGGGGSQLQLQESGPGLVKPSETLSLTCTVSGGSISSGSFYWGWIRQPPGKGLEWIGTIYYSGSTYYNPSLKSRVAISVDTSKNQFYLNLNFVTAADTAVYHCARERSSSWYPFDYWGQGTLVTVSSASTKGPSVFPLAPSSKSTSGGTAALGCLVKDYFPEPVTVSWNSGALTSGVHTFPAVLQSSGLYSLSSVVTVPSSSLGTQTYICNVNHKPSNTKVDKRVEPKSC
light: SSELTQDPAVSVALGQTVRITCQGDSLRNYFANWYQQKPGQAPVLVIYGKNNRPSGIPDRFSGSSSGNTASLTITGAQAEDEADYYCNSRDSSGYHVVFGGGTKLTVLGQPKAAPSVTLFPPSSEELQANKATLVCLISDFYPGAVTVAWKADSSPVKAGVETTTPSKQSNNKYAASSYLSLTPEQWKSHKSYSCQVTHEGSTVEKTVAPTECS

Key:
[1] = target: T1, recombinant human OX40L protein (R&D …); assay: cell-based or functional assay
AVI-GST-His6-hOX40L [2] = target: T2, AVI-GST-His6-hOX40L; assay: cell-based or functional assay
AVI-GST-His6-hOX40L [3] = target: T2, AVI-GST-His6-hOX40L; assay: cell-based or functional assay; remark: listed apart in the source
AVI-GST-His6-hOX40L [4] = target: T2, AVI-GST-His6-hOX40L; assay: cell-based or functional assay; remark: listed apart in the source
AVI-GST-His6-hOX40L [5] = target: T2, AVI-GST-His6-hOX40L; assay: cell-based or functional assay; remark: listed apart in the source
[6] = target: T1, recombinant human OX40L protein (R&D …); assay: SPR steady state affinity to human OX40L
Experimental: (§1) Recombinant OX40L proteins (human OX40L protein, R&D systems, cat. #1054-OX; cynomolgus monkey OX40L, Novoprotein cat. #CP72) were immobilized onto Biacore CM5 sensor chips and anti-OX40L antibodies were bound to this surface at a range of concentrations. The response at steady state was measured with a Biacore T200 instrument (GE Healthcare) and plotted against the concentration of antibody and fit to a 1:1 binding model. The steady state KD was determined as the antibody concentration at a response equal to half the maximal response (Rₘₐₓ).

[7] = target: T1, recombinant human OX40L protein (R&D …); assay: SPR steady state, Biacore T200; OX40L immobilised on CM5, antibody in solution
Experimental: as §1

[8] = target: T1, recombinant human OX40L protein (R&D …); assay: cell-based or functional assay; remark: listed apart in the source
AVI-GST-His6-hOX40L [9] = target: T2, AVI-GST-His6-hOX40L; assay: cell-based or functional assay; remark: listed apart in the source
[10] = target: T1, recombinant human OX40L protein (R&D …); assay: SPR steady state, Biacore T200; OX40L immobilised on CM5, antibody in solution; remark: listed apart in the source
Experimental: as §1
As with the IgG clones, binding affinity to human OX40L was determined for all twelve FcFabs using steady state affinity assay as described in section 1.1.7 of Example 1. […]

Binder	Primary T cell activation assay IC50 [1] [nM]	OX40L neutralization/OX40-HEK Reporter IC50 (AVI-GST-His6-hOX40L [2]) [nM]	IC50 (read off the curve) (AVI-GST-His6-hOX40L [3]) [nM]	IC50 (read off the curve) (AVI-GST-His6-hOX40L [4]) [nM]	IC50 (read off the curve) (AVI-GST-His6-hOX40L [5]) [nM]	Kd [6] [nM]	Kd [7] [nM]	Primary T cell activation assay IC50 [8] [nM]	OX40L neutralization/OX40-HEK Reporter IC50 (AVI-GST-His6-hOX40L [9]) [nM]	binding result [10]
B1	9.3	6.6	~3	~6	~4	15	15	–	–	–
B2	–	–	–	–	–	–	–	15.2	57.2	no binding
